Legend:
Assay in all cases: surface plasmon resonance, Dectin-1 immobilized
[1] = target: T1, murine annexin A1 core domain (murine, UniProt P10107 41-346, limits assumed)
T1 construct: domain: core domain; also called mAnxA1 core; AnxA1 core domain
T1 sequence (looked up): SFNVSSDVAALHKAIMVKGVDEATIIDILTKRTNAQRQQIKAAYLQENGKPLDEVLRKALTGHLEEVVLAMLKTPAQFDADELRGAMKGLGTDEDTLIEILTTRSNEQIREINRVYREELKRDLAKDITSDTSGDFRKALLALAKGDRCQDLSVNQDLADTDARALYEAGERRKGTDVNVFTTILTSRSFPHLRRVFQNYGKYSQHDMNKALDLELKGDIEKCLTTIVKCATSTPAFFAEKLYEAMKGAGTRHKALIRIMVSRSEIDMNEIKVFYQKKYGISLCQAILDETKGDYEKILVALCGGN

[2] = target: T2, recombinant murine annexin A13 (murine, UniProt Q99JG3 1-317)
T2 construct: Recombinant protein; also called mAnxA13; AnxA13
T2 sequence (looked up): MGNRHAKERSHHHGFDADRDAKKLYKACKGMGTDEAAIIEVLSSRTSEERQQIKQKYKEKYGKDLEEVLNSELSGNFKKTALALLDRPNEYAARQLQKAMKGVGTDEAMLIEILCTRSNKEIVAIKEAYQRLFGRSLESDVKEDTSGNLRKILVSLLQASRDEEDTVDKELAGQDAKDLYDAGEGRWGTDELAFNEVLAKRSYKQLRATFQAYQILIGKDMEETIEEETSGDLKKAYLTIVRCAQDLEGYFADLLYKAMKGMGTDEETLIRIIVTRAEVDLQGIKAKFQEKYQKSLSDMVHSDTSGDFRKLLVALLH

[3] = target: T3, recombinant murine annexin A5 (murine, UniProt P48036 1-319)
T3 construct: Recombinant protein; also called mAnxA5; AnxA5
T3 sequence (looked up): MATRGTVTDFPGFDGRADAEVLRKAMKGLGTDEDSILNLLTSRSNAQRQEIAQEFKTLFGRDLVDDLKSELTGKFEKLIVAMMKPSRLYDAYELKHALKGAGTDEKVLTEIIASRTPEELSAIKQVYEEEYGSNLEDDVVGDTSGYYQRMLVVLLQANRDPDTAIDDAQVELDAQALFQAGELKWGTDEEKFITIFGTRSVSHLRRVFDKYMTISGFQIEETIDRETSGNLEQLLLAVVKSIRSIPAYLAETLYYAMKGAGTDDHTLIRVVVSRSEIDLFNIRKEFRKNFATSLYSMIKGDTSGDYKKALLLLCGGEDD

[4] = target: T4, recombinant murine annexin A1 (murine, UniProt P10107 1-346)
T4 construct: Expressed in E. coli from pET41a with C-terminal FLAG tag, PreScission site and Protein A tag; the Protein A tag is cleaved off; also called mAnx1; mAnxA1; not shown: C-terminal FLAG tag and what remains of the PreScission site after cleavage
T4 sequence (looked up): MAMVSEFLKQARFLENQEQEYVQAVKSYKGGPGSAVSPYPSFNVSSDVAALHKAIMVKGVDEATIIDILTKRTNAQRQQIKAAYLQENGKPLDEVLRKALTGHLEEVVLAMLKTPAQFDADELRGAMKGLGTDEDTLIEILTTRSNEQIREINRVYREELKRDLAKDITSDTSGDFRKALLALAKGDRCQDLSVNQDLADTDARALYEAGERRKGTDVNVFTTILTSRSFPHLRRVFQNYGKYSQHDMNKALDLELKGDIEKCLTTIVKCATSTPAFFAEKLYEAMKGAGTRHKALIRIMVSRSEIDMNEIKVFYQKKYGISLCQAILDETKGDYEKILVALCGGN

- Kd [1]: ~100 nM
- Kd [2]: ~100 nM
- Kd [3]: ~100 nM
- Kd [4]: ~100 nM
B1: Dectin-1 (receptor)
chain: GHNSGRNPEEKDNFLSRNKENHKPTESSLDEKVAPSKASQTTGGFSQPCLPNWIMHGKSCYLFSFSGNSWYGSKRHCSQLGAHLLKIDNSKEFEFIESQTSSHRINAFWIGLSRNQSEGPWFWEDGSAFFPNSFQVRNTAPQESLLHNCVWIHGSEVYNQICNTSSYSICEKEL

Source: patent US20180275124A1 (DEUTSCHES KREBSFORSCHUNGSZENTRUM STIFTUNG DES FFENTLICHEN …, published 2018)
